# According to patent US20140017242A1, “ANTI-BRADYKININ B2 RECEPTOR (BKB2R) MONOCLONAL ANTIBODY” (Diamedica, Inc., priority 2010, published 2014):
# “And” between values parts separate entries of the source, which are not always exact repeats. Equal values may be shown once.
# T1: BKB2 receptor (Homo sapiens, UniProt P30411)
# T1 sequence (P30411 1-391): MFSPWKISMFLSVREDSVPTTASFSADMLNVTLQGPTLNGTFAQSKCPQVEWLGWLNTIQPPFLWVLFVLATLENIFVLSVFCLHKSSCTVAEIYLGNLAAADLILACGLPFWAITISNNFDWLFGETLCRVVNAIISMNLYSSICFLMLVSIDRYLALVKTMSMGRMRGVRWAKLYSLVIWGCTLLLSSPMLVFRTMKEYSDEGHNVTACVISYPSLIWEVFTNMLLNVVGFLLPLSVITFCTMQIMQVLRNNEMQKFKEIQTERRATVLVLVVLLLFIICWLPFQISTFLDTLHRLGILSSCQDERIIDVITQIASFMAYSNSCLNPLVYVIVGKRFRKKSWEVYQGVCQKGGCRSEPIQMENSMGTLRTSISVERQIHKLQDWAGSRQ
# B1: 5F12G1: murine monoclonal anti-BKB2R antibody (IgG2b,κ), VH comprising SEQ ID NO:1, VL comprising SEQ ID NO:2 (antibody, listed as Mus musculus, V domains shown)
# VH: EVKLEESGGGLVQPGGSMKLSCVVSGFTFSDYWMSWVRHSPEMGLEWVAEIRLKSDNYATHYAESVKGRFTISRDDSKSRLYLQINSLRGEDTGIYYCTRDYYAMEYWGQGTSVTVSS
# VL: DVVMTQTPLSLPVSLGDQASISCRSSQTIVHSNGKTYLEWYLQKPGQSPKLLIYKVSNRFSGVPDRFSGSGSGTEFTLKISRVETEDLGVYYCFQASHVPYTFGGGTKLEIK
# Legend:
# [1] = test system: influenza strain A/Brisbane/07 (H1N1); format: cell-based, influenza virus
# Wistar rats = assay: Acute effects on blood pressure in anesthetized Wistar rats; format: in vivo, rat; details: single dose 0.5 mg/kg IV
# Experimental: Male Wistar rats (Charles River Laboratories, Boston, Mass.) were 7.0 to 7.6 weeks old, weighed an average of 245 grams, and were maintained on Purina 5001 rat chow ad libitum. Following one week of laboratory acclimatization, treatments femoral catheter surgery and drug administration were conducted within a one-day period with measurements commencing the same day and continued during an ongoing three-week follow-up period. Treatment groups were (1) 3H3H3 (anti-BKB2R) antibody (n=8), (2) 3H3H9 (anti-BKB2R) antibody (n=8), (3) 1F2G7 (anti-BKB2R) antibody, (n=3), (4) 5F12G1 (anti-BKB2R) antibody (n=8).
# Rats were anesthetized with ketamine (30 mg/kg, IM) and Inactin (50 mg/kg, IP). Cannulae were implanted in the femoral artery for blood pressure measurements and in the femoral vein for drug administration. Arterial line was filled with saline with 10 UI/ml of heparin to keep the line patent over the experiment and avoid frequent flushing of the arterial line. After 15-20 minutes of equilibration period, and once the blood pressure was stable, a baseline blood pressure was recorded for 15 minutes; then, drugs were administered and its effects on blood pressure assessed. For the antibodies a single dose (0.5 mg/kg) was administered and blood pressure recorded for three hours. All drugs were diluted in saline or PBS to achieve a total volume of 1 ml/kg. Drugs were slowly administered, on a 40-sec period on average. Animals were kept at 37° C. during the experiment. At the end of the experiments, animals were euthanized and no blood or tissues were collected.
# Baseline blood pressure, length of blood pressure response to drug, maximum blood pressure change and Area Under the Curve (AUC) for the blood pressure response. Blood pressure at 1, 2 and 3 h after infusion for the antibodies.
# ZDF fa/fa rats [2] = assay: 21-day ZDF fa/fa study: tolerability; format: in vivo, rat; details: different doses (0.2, 0.04, 0.008 mg/kg s.c. every 3 days), 21 days
# Experimental: Animals. Male ZDF fa/fa rats were obtained from CRL (Kingston, N.Y.). Upon arrival, rats were seven weeks of age. The rats were housed individually per cage in a room with a photo cycle of 12 hours of light and 12 hours of dark and an ambient temperature of 70-72° F. and fed on regular rodent diet and water ad libitum. At the age of eleven weeks, rats were divided into six groups (Table 5) of eight rats per group based on fasting blood glucose levels. A sub-group of four rats per group was maintained in parallel to the main groups and was dosed similarly for twenty-one days for a hyperinsulinemic-euglycemic clamp study.
# The test compounds 5F12G1 and MG2b-57 were administered subcutaneously once every three days. Exenatide was administrated intraperitoneally twice every day and sitagliptin was administrated orally once every day for a period of twenty-one days.
# ZDF fa/fa rats [3] = assay: Oral glucose tolerance test in ZDF fa/fa rats, humanized mAbs; format: in vivo, rat; details: single s.c. administration 0.2 mg/kg
# Text: This example describes evaluation of mouse mAb 5F12G1 and its twelve humanized clones in Zucker Diabetic fatty (ZDF fa/fa) rats for effects on insulin sensitivity in animals. Zucker Diabetic Rats develop symptoms similar to type 2 diabetes and are genetically resistant to insulin. […] Therefore, the Zucker rat is a good model to test the ability of the monoclonal antibody to increase insulin sensitivity, especially in an OGTT.
# Male ZDF fa/fa rats were obtained from Charles River (Kingston, ON). Upon arrival, rats were ten weeks of age. The rats were housed individually per cage in a room with a photo cycle of 12 hours of light and 12 hours of dark and an ambient temperature of 70-72° F. and fed on regular rodent diet and water ad libitum. After seven days of acclimatization, rats were grouped into fourteen groups of three rats per group (Table 10).
# Oral Glucose Tolerance Test. An oral glucose tolerance test (OGTT) was performed on overnight fasted (16 hours) rats. Rats received subcutaneously administered humanized mAbs, mouse mAb 5F12G1 (positive control) and PBS (vehicle control) at a dose of 0.2 mg/kg body weight, thirty minutes prior to glucose administration. D-Glucose was prepared in distilled water and administered orally at 2 g/kg body weight. Blood glucose levels were measured before administration of humanized mAbs, 5F12G1 or vehicle (t=−30 minutes) and just before glucose loading (0 minute), and at timepoints of 30, 60, 90 and 120 minutes, using Accu-chek™ glucose meter.
# BKB2 receptor = target: T1, BKB2 receptor; assay: Intracellular calcium release in CHO-K1/B2/Gα15 cells (FLIPR Calcium 4); format: cell-based; design: expressed in transfected cells; details: 0.5 mg/ml; normalized to the positive control; mean+/−SD, n=2
# Experimental: A stable CHO cell line expressing the human BKB2 receptor (CHO-K1/B2/Gα15) was used for the screening. The antibody was diluted to five different concentrations, from 0.5 mg/ml, via three-fold dilution increments, and screened on duplicate cell samples.
# Expression and functional activity of the human BKB2 receptor in the CHO-K1/B2/Gα15 cell line were validated by exposure to the positive control, bradykinin.
# To perform the assay, CHO-K1/B2/Gα15 cells were seeded in wells of a 384-well black-wall, clear-bottom plate at a density of 20,000 cells per well in 20 μL of growth medium 20 hours prior to the day of experiment, and maintained at 37° C./5% CO2. 20 μL of dye-loading solution (FLIPR™ Calcium 4 assay kit, Molecular Devices, Sunnyvale, Calif.) was added into each well and the plate was placed into a 37° C. incubator for 60 minutes, followed by 15 minutes at room temperature. The total reading time was 120 sec. After a 20-second reading to establish the baseline, the antibody or agonist were added to selected wells and the fluorescence signal was captured for another 100 seconds (21 s to 120 s). Readings from wells containing cells stimulated with assay buffer (0.03% Na3N PBS) containing 1% DMSO were chosen as the background values for screening; readings from wells containing cells stimulated with the agonist bradykinin (at 10 uM) were chosen as the positive control.
molecule,measurement,setting,value
B1,+/− Result FAM,[1],Positive
same,dose dependence of the reduction of viral titer / viral genomic copies,"[1]; A549 cells, qRT-PCR, FIGS. 5 to 8",decreased viral titer in a dose-dependent manner
same,reduction in viral titer,[1]; highest tested concentration of 100 μg/ml,100 fold
same,Ct FAM,[1]; listed as G1,36.21 and 30.38 and 35.93 and 30.08 and 37.95 and 32.97 and 34.96 and 34.02
same,Peak Blood Pressure Response (mm HG),Wistar rats,57 +/− 4 mm HG
same,Length (sec) of Blood Pressure Response,Wistar rats; until blood pressure returned to baseline,168 ± 29 s
same,blood pressure at one hour after administration,Wistar rats; baseline 109±3 mm Hg,95±3 mm Hg
same,blood pressure at three hours after administration,Wistar rats; baseline 109±3 mm Hg,95±3 mm Hg
same,blood pressure at two hours after administration,Wistar rats; baseline 109±3 mm Hg,94±3 mm Hg
same,tolerability / toxic effects,ZDF fa/fa rats [2],well tolerated and no toxic effects were noted
same,glucose tolerance,ZDF fa/fa rats [3],showed improvement in glucose tolerance
same,"area under curve (AUC) of blood glucose concentration after oral administration of glucose, compared to vehicle control",ZDF fa/fa rats [3]; 30 min prior to glucose 2 g/kg,decreased
same,percentage of activation,BKB2 receptor,72.7+/−3.5%
